This is an account of results in patent publication US20260274955A1 (JANUX THERAPEUTICS, published 2026).

T1 sequence (VH, as listed by the source, chain 1 of 2): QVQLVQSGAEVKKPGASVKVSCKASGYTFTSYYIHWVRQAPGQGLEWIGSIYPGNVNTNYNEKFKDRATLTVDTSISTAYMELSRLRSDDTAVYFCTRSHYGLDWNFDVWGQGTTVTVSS
T1 sequence (VL, as listed by the source, chain 2 of 2): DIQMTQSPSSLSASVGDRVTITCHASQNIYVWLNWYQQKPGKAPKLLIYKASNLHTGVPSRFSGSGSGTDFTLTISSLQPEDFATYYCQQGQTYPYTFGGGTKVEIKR

This experiment concerns the target T1, Anti-CD28 Fab (SEQ ID NOs: 202, 203).
T1 construct: biotinylated and captured on neutravidin coated plates in the phage ELISA
The experiment is described as follows: phage ELISA on captured biotinylated Fab.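 Further: wells preblocked with or without CD28 antigen, then clonal phage supernatant added briefly, washed, and bound phage read out by ELISA using HRP-linked anti-M13 antibody.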
Method: Clonal phage were harvested as crude supernatants and screened via standard ELISAs. […] Prior to the addition of clonal phage, wells were incubated with blocking buffer and CD28 antigen or blocking buffer alone. Without washing or aspirating, clonal phage supernatants were then added to the wells and incubated for a short time. Wells were then washed followed by detection of bound phage using a horse radish conjugated anti-M13 antibody.
Turning to YCDGHVAEYMAKCL [Phage-177], the “Anti-CD28 Fab signal” value came out at 2.16.

Regarding YCEGHAPQYIAKCL [Phage-246], the “Anti-CD28 Fab signal” value came to 2.03.

Turning to YCQGHLPEYMSKCL [Phage-258], the “Anti-CD28 Fab signal” value was found to be 2.01.

As to YCDGHMPEYMWKCL [Phage-170], the “Anti-CD28 Fab signal” value worked out at 2.17.

In the case of YCDGHAPEYMEKCL [Phage-254], the “Anti-CD28 Fab signal” value is 2.01.

Turning to YCEGHLPQYLQKCL [Phage-176], the “Anti-CD28 Fab signal” value was 2.16.

As to YCDGHSNEYMAKCL [Phage-175], the “Anti-CD28 Fab signal” value came to 2.16.

Regarding YCDGHSLEYMAKCL [Phage-180], the “Anti-CD28 Fab signal” value was found to be 2.15.

YCDGHLPEYMWKCI [Phage-178]: the “Anti-CD28 Fab signal” value amounted to 2.15.

Regarding YCDGHSAEYMWKCL [Phage-179], the “Anti-CD28 Fab signal” value was found to be 2.15.

Regarding YCDGHSALYMWKCL [Phage-276], the “Anti-CD28 Fab signal” value is 1.96.

On to YCDGHSSEYMIKCL [Phage-277], for which the “Anti-CD28 Fab signal” value was 1.95.

YCDGHSAEYMQKCL [Phage-279]: the “Anti-CD28 Fab signal” value is 1.95.

For YCAGHLEIYMNKCL [Phage-283], the “Anti-CD28 Fab signal” value amounted to 1.94.

In the case of YCAGHAPEYMQKCL [Phage-174], the “Anti-CD28 Fab signal” value turned out to be 2.16.

As for YCAGHLPEYMMKCL [Phage-248], the “Anti-CD28 Fab signal” value was 2.03.

Consider YCAGHAPEYIQKCL [Phage-172], for which the “Anti-CD28 Fab signal” value stood at 2.17.

On to YCDGHLPEYLGKCL [Phage-274], for which the “Anti-CD28 Fab signal” value was 1.96.

With YCAGHSPEYMTKCL [Phage-171], the “Anti-CD28 Fab signal” value stood at 2.17.

Regarding YCEGHSPEYMTKCL [Phage-251], the “Anti-CD28 Fab signal” value came out at 2.02.

Turning to YCEGHLPVYMWKCL [Phage-169], the “Anti-CD28 Fab signal” value turned out to be 2.17.

As to YCDGHLIEYMYKCL [Phage-278], the “Anti-CD28 Fab signal” value worked out at 1.95.

For the molecule YCDGHVAEYRDKCL [Phage-173], the “Anti-CD28 Fab signal” value came to 2.17.

In the case of YCEGHSLEYMGKCL [Phage-253], the “Anti-CD28 Fab signal” value was 2.02.

Consider YCEGHAREHMAKCL [Phage-250], for which the “Anti-CD28 Fab signal” value is 2.02.

YCDGHTQEYMAKCL [Phage-168]: the “Anti-CD28 Fab signal” value came to 2.17.
